Assay results reported in patent US5039791A, “Peptide fragments of tissue plasminogen activator” (Monsanto Company, priority 1989, dated 1991).
Where no end group is shown, it is not given here.

Target: T1, fibrin (Homo sapiens, UniProt P02671+P02675+P02679)
T1 construct: purchased Kabi Vitrum
T1 sequence (P02671 20-644 isoform P02671-2 limits assumed): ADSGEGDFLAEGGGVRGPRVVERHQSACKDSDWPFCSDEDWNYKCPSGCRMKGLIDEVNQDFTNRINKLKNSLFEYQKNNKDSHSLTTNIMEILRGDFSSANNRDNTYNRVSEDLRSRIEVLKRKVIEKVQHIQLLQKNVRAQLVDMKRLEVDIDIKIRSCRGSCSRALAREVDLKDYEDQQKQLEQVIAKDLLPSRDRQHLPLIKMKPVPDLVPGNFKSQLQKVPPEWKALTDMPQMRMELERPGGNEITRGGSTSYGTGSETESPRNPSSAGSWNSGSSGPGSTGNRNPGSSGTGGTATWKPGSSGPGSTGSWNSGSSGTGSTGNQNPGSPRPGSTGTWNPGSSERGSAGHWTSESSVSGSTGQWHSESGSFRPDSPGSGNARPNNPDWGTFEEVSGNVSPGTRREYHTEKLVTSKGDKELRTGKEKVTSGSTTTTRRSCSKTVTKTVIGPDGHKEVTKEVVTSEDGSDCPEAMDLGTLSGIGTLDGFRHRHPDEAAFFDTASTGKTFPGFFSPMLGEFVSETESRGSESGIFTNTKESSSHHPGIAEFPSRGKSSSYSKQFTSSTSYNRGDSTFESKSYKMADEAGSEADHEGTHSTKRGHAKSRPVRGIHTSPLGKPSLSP
T1 sequence (P02675 45-491 limits assumed): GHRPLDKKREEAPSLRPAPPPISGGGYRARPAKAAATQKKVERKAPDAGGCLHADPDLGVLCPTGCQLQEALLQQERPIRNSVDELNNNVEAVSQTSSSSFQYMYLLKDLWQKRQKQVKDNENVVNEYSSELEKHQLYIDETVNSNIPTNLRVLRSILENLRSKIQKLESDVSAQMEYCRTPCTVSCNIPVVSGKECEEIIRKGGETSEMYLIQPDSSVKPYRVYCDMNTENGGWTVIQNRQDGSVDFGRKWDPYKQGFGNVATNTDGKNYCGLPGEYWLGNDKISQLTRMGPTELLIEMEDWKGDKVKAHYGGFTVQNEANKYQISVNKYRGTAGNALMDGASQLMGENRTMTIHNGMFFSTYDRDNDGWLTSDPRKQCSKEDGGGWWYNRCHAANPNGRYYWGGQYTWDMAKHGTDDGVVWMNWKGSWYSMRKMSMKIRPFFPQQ
T1 sequence (P02679 27-437 isoform P02679-2 limits assumed): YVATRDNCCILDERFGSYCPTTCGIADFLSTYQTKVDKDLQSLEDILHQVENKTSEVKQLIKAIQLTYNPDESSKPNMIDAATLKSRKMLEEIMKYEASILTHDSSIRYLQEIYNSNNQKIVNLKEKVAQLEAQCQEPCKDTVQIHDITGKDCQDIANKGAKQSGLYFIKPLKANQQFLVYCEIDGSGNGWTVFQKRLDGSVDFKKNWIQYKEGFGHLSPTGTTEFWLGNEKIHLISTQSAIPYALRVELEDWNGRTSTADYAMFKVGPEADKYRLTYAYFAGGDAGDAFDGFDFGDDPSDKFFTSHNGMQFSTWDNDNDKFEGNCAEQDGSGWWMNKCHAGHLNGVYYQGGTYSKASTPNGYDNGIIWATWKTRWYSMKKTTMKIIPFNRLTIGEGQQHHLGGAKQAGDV
Experiment: Fibrin binding: binding of tPA to fibrin, tPA antigen in supernatant by ELISA
Details: 15 μg/ml peptide; 200 ng/ml single chain melanoma tPA, 200 μg/ml human fibrinogen; no peptide = 48
Procedure: Binding of tPA to fibrin was measured using the conventional method of Rijken et al., J. Biol. Chem. 257, 2920-2925 (1982). This method involves mixing thrombin with a solution containing tPA and fibrinogen, centrifuging the resulting clot and measuring the concentration of tPA antigen in the supernatant. In a final volume of 200 μl, the following were combined: 200 ng/ml single chain melanoma tPA, 200 μg/ml human fibrinogen, 15 μg/ml tPA peptide, 1.1 mg/ml bovine serum albumin, 0.55 mg/ml bovine gamma globulin and 10 mM ε-amino caproic acid in PBSAT. Controls omitted fibrinogen, peptide or both. Mixtures were clotted by the addition of 1 unit/ml bovine thrombin, incubated one hour at room temperature and centrifuged. tPA antigen in the supernatant was measured by conventional ELISA and the percentage bound calculated by difference using the antigen level of a control mixture with no fibrinogen as 0% bound. […] An ELISA assay kit for tPA and PAI-1 was purchased from American Diagnostica Inc. and assays were performed according to printed protocols supplied by the manufacturer with the kit except that a single lot of melanoma tPA from American Diagnostica Inc. (product 111, lot 47-01) was used as the antigen standard throughout this work and 5.0 mg/ml of BSA and 2.5 mg/ml of bovine gamma globulin were included in ELISA buffers.

Substance	% Bound (binding of tPA to fibrin)
CDVPSCSTCGLRQYSQPQFRIKGGL-amide (CDVPSCSTCGLRQYSQPQFRIKGGL-NH2; cysteine pairing not given here) [Peptide 169, 25 amino acid synthetic peptide amide fragment of native human tPA]	55%
CNSGRAQCHSVPVKSCSEPRCFNGG-amide (CNSGRAQCHSVPVKSCSEPRCFNGG-NH2; cysteine pairing not given here) [Peptide 147, 25 amino acid synthetic peptide amide fragment of native human tPA]	55%
DGDAKPWCHVLKNRRLTWEYCDVPS-amide (DGDAKPWCHVLKNRRLTWEYCDVPS-NH2; cysteine pairing not given here) [Peptide 167, 25 amino acid synthetic peptide amide fragment of native human tPA]	50%
EFCSTPACSEGNSDCYFGNGSAYRG [Peptide 160, 25 amino acid synthetic peptide fragment of native human tPA]	56%
ERFPPHHLTVILGRTYRVVPGEEEQ-NH2 [Peptide 176]	53%
ERLKEAHVRLYPSSRCTSQHLLNRT-NH2 [Peptide 186]	50%
GNSDCYFGNGSAYRGTHSLTESGAS-NH2 [Peptide 161]	57%
LCAGDTRSGGPQANLHDACQGDSGG-amide [Peptide 189, 25 amino acid synthetic peptide amide fragment of native human tPA]	50%
LKNRRLTWEYCDVPSCSTCGLRQYS [Peptide 168, 25 amino acid synthetic peptide fragment of native human tPA]	54%
LLNRTVTDNMLCAGDTRSGGPQANL-NH2 [Peptide 188]	52%
LRSNRVEYCWCNSGRAQCHSVPVKS-amide (LRSNRVEYCWCNSGRAQCHSVPVKS-NH2; cysteine pairing not given here) [Peptide 146, 25 amino acid synthetic peptide amide fragment of native human tPA]	54%
LYFSDFVCQCPEGFAGKCCEIDTRA [Peptide 150, 25 amino acid synthetic peptide fragment of native human tPA]	52%
PEGFAGKCCEIDTRATCYEDQGISY-amide (PEGFAGKCCEIDTRATCYEDQGISY-NH2; cysteine pairing not given here) [Peptide 151, 25 amino acid synthetic peptide amide fragment of native human tPA]	53%
QESSVVRTVCLPPADLQLPDWTECE-amide [Peptide 182, 25 amino acid synthetic peptide amide fragment of native human tPA]	52%
QLKSDSSRCAQESSVVRTVCLPPAD-amide (QLKSDSSRCAQESSVVRTVCLPPAD-NH2; cysteine pairing not given here) [Peptide 181, 25 amino acid synthetic peptide amide fragment of native human tPA]	49%
QQHQSWLRPVLRSNRVEYCWCNSGR-amide (QQHQSWLRPVLRSNRVEYCWCNSGR-NH2; cysteine pairing not given here) [Peptide 145, 25 amino acid synthetic peptide amide fragment of native human tPA]	56%
RRGARSYQVICRDEKTQMIYQQHQS [Peptide 143]	57%
SMILIGKVYTAQNPSAQALGLGKHN-NH2 [Peptide 164]	53%
SPSQEIHARFRRGARSYQVICRDEK [Peptide 142]	58%
TAESGAECTNWNSSALAQKPYSGRR-NH2 [Peptide 154]	56%
WNSSALAQKPYSGRRPDAIRLGLGN [Peptide 155]	54%
YPSSRCTSQHLLNRTVTDNMLCAGD-amide [Peptide 187, 25 amino acid synthetic peptide amide fragment of native human tPA]	51%
YSGRRPDAIRLGLGNHNYCRNPDRD-NH2 [Peptide 156]	52%
YVFKAGKYSSEFCSTPACSEGNSDC-amide (YVFKAGKYSSEFCSTPACSEGNSDC-NH2; cysteine pairing not given here) [Peptide 159, 25 amino acid synthetic peptide amide fragment of native human tPA]	54%
